Assay results as given in patent US20120129768A1 (JIANGSU HANSOH PHARMACEUTICAL GROUP, published 2012).
Starred links: 1 amine or outer side, 2 acyl side, 3 side chain; linkers in the order of their positions; H or OH if unused. Non-standard residues stand in square brackets, D forms with d. No end group written: not given here. *: point of attachment. εLys = N[C@@H](CCCCN[*:1])C(=O)[*:2]; Palmitoyl = CCCCCCCCCCCCCCCC(=O)*; Aib = CC(C)(N)C(=O)O

Molecular target: Glucagon-like peptide-1 receptor (GLP1R)
Assay: cell-based or functional assay

Binder | EC50 (nM), cAMP-response-element luciferase reporter in HEK293 cells with GLP1R [nM] | Maximum reaction rate (%)
HAEGTFTSDVSSYLEGQAAEFIVWLVKGRGKKGGPPPS[εLys](Palmitoyl) (not fully specified) [HS-20005] | 0.000236 | 89.1
H[Aib]EGTFTSDVSSYLEEEAAKEFIAWLVRGGPSSGAPPPSK (not fully specified (residue 40); ends and bridges not checked) [HS-20004] | 0.000373 | 90.8
HAEGTFTSDVSSYLEEQAAEFIVWLVKGRGKKGGPPPS[εLys](Palmitoyl) (not fully specified) [HS-20007] | 0.000549 | 87
